Results taken from patent US20130123350, “NUCLEIC ACID MOLECULE CAPABLE OF BINDING TO c-MET AND USE THEREOF” (KANAGAWA PREFECTURAL HOSPITAL ORGANIZATION, published 2013).

B1: g6 (ssRNA)
RNA: GGGACGCUCACGUACGCUAAUCCAGGUGUGGCGAGCCACUGUAAGAGUCGCCGUGAGGAUUCAGUGCCUGGACGUGCAGU
B2: g38 2'-F (ssRNA)
RNA: GGGACGCUCACGUACGCUAACCAGGAGCAUUAGACCGGGGAAAGAAGGAGUACCGUCUGGUCAGUGCCUGGACGUGCAGU
modifications: 2'-F on all C and U
B3: g1 (ssRNA)
RNA: GGGACGCUCACGUACGCUAAACACACUGAGAGUUUGACCAGCUAUUAAAUGGGUCGUGACUCAGUGCCUGGACGUGCAGU
B4: g5 (ssRNA)
RNA: GGGACGCUCACGUACGCUAAGCCCAACGAACAUUUUGAGUUUCCAGGCAGCUCAUAGACAUCAGUGCCUGGACGUGCAGU

Columns and labels:
[1] = target: T1, rec-cMet (Recombinant Human HGF R/c-MET/Fc Chimera) (Homo sapiens, UniProt P08581;P08581 SEQ:1-283,SEQ:1-625); test: ELONA; high binding; Table 2 misnumbers as SEQ 45; also SPR FIG. 11; conditions: tags: C-terminal HIEGRMD linker, human IgG Fc (100-330), 6xHis; R&D Systems; chain copies: 2 (inferred, Fc chimera)
T1 sequence (P08581 25-307, change not shown, chain 1 of 2): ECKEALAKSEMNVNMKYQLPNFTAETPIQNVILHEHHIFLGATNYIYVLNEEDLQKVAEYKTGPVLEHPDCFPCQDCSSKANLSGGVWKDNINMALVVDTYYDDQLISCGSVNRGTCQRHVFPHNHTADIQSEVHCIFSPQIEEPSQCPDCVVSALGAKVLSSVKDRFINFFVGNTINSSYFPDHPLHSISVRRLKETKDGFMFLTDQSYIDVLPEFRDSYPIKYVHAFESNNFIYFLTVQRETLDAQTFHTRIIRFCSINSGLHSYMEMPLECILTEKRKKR
T1 sequence (P08581 308-932, change not shown, chain 2 of 2): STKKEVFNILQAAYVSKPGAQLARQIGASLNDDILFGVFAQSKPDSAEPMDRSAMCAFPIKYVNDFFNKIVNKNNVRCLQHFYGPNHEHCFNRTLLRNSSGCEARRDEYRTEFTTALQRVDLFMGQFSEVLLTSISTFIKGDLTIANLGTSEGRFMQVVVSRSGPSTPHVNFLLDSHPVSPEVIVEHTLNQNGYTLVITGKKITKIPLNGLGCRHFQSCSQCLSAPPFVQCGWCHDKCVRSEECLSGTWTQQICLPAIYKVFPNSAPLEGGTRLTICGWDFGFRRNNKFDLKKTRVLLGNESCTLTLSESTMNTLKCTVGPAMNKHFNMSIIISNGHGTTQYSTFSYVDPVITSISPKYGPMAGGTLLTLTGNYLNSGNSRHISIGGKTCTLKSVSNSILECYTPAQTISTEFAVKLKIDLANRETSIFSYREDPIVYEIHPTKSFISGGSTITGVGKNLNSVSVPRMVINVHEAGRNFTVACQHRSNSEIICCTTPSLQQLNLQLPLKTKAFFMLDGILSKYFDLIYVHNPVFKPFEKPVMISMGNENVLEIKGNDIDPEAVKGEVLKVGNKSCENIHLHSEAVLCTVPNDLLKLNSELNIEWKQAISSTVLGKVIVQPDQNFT
Description: (§1) An anti-IgG antibody (trade name: “Human IgG-Fc Antibody”, Bethyl Laboratories) was adsorbed on a 96-well plate (Iwaki, AGC Techno Glass Co., Ltd., Japan), and then was subjected to blocking using 1% bovine serum albumin. Subsequently, 50 μL of the 1 μg/mL rec-cMet was added to the plate. Further, Tris (20 mmol/L), sodium chloride (100 mmol/L), magnesium acetate (0.1 mmol/L) and Triton (registered trademark)-X100 (0.2%) were added to the plate so that their final concentrations would be as shown in the parentheses. The plate was incubated at room temperature for 3 hours, thus causing the rec-cMet to bind to the plate. After the incubation, the plate was washed three times with a washing solution. The composition of the washing solution was as follows: 20 mmol/L Tris, 100 mmol/L sodium chloride, 0.1 mmol/L magnesium acetate, and 0.2% Triton (registered trademark)-X100. As a control, incubation and washing were carried out in the same manner, except that 50 μL of the washing solution was added instead of 50 μL of the rec-cMet.
(§2) Next, a 20-mer polyadenine (poly A) was added to the 3′ end of each of the RNA aptamers. Thus, poly-A-added RNA aptamers were prepared. […] The plate was then washed, after which a 1-Step Ultra TMB substrate (Thermo Fisher Scientific Inc., USA) was added to the plate to cause color development, and the absorbance at 450 nm was measured.

[2] = target: rec-NGFR (Recombinant Human NGF R/TNFRSF16/Fc Chimera) (Homo sapiens, UniProt P08138 SEQ:1-222); test: ELONA; signal below 40N; conditions: tags: C-terminal DIEGRMD linker, human IgG Fc (100-330), 6xHis; R&D Systems; chain copies: 2 (inferred, Fc chimera)
Chain of rec-NGFR (Recombinant Human NGF R/TNFRSF16/Fc Chimera) (P08138 29-250, change not shown): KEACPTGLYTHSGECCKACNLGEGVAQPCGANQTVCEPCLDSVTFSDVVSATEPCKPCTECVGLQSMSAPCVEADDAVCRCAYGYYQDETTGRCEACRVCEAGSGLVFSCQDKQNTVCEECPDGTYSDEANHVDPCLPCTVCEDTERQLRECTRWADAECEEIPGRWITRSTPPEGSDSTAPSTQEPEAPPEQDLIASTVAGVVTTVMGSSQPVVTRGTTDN
Description: Next, a 20-mer polyadenine (poly A) was added to the 3′ end of each of the RNA aptamers. Thus, poly-A-added RNA aptamers were prepared. Each of the poly-A-added RNA aptamers was denatured, and thereafter, the denatured poly-A-added RNA aptamer was mixed with a 20-mer biotinylated polythymine with its 5′ end being biotinylated (740 nmol/L), tRNA (100 μg/mL), and an RNase inhibitor (0.16 units/mL). As a result, complementary binding occurred between the poly A in the poly-A-added RNA aptamer and the polythymine (poly T) in the biotinylated polythymine, whereby a biotin-labeled RNA aptamer was produced. The biotin-labeled RNA aptamer was added to the plate, and the plate was incubated at 4° C. for 30 minutes. Subsequently, the plate was washed, and 0.1 μg/mL HRP-streptavidin (Thermo Fisher Scientific Inc., USA) was added thereto. The plate was then washed, after which a 1-Step Ultra TMB substrate (Thermo Fisher Scientific Inc., USA) was added to the plate to cause color development, and the absorbance at 450 nm was measured.
The binding ability of each of the RNA aptamers to the rec-NGFR was examined in the same manner as in Example 1, except that the rec-NGFR was bound to the plate. Also, as a comparative example, the 40N was used, and the binding ability thereof was examined in the same manner.

[3] = target: T1, rec-cMet (Recombinant Human HGF …); test: SPR; best fluorinated binder; rec-cMet 60 nM; conditions: tags: C-terminal HIEGRMD linker, human IgG Fc (100-330), 6xHis; R&D Systems; chain copies: 2 (inferred, Fc chimera)
Description: The binding ability of each of the RNA aptamers to the rec-cMet was examined in the same manner as in Example 5, except that the fluorinated RNA aptamers were used. The concentration of the rec-cMet was set to 60 nmol/L. With the time point at which the introduction of the rec-cMet to the chip was started being 0 seconds, introduction of a buffer was started 60 seconds later. As a comparative example, the same negative control as in Example 6 was used.
FIG. 12 is a graph showing the binding ability of each of the RNA aptamers to the rec-cMet. In FIG. 12, the vertical axis indicates the signal intensity (RU) measured with BIACORE (registered trademark) X. The signal intensity shown in the graph is a value measured at the 60th second when the buffer was introduced. […] By fluorination, these RNA aptamers had acquired RNase resistance and they also maintained the bonding force to the c-Met. Thus, it can be seen that these fluorinated RNA aptamers are particularly suitable for use in vivo and in vitro. All the RNA aptamers maintained equivalent signal values subsequent to the 60th second. Thus, it was confirmed that no decrease in binding ability occurred.

[4] = target: T1, rec-cMet (Recombinant Human HGF …); test: ELONA; high binding; 3' polyA20 hybridised to biotin-polyT; 20 mM Tris, 100 mM NaCl, 0.1 mM Mg acetate, 4 C; also SPR FIG. 11; conditions: tags: C-terminal HIEGRMD linker, human IgG Fc (100-330), 6xHis; R&D Systems; chain copies: 2 (inferred, Fc chimera)
Description: as §1, §2

[5] = target: T1, rec-cMet (Recombinant Human HGF …); test: ELONA; high binding; 3' polyA20/biotin-polyT; also SPR FIG. 11; conditions: tags: C-terminal HIEGRMD linker, human IgG Fc (100-330), 6xHis; R&D Systems; chain copies: 2 (inferred, Fc chimera)
Description: as §1, §2

| Binder | binding result [1] | binding result [2] | binding result [3] | binding result [4] | binding result [5] |
| --- | --- | --- | --- | --- | --- |
| B1 | binds | no binding | – | – | – |
| B2 | – | – | binds | – | – |
| B3 | – | no binding | – | binds | – |
| B4 | – | no binding | – | – | binds |
